# ChEMBL document CHEMBL2396531, “Hybrid molecule from O2-(2,4-dinitrophenyl)diazeniumdiolate and oleanolic acid: a glutathione S-transferase π-activated nitric oxide prodrug with selective anti-human hepatocellular carcinoma activity and improved stability” (J Med Chem, 2013)
# B1: Glutathione S-transferase P (Homo sapiens) (protein)
# chain: MPPYTVVYFPVRGRCAALRMLLADQGQSWKEEVVTVETWQEGSLKASCLYGQLPKFQDGDLTLYQSNTILRHLGRTLGLYGKDQQEAALVDMVNDGVEDLRCKYISLIYTNYEAGKDDYVKALPGQLKPFETLLSQNQGGKTFIVGDQISFADYNLLDLLLIHEVLAPGCLDAFPLLSAYVGRLSARPKLKAFLASPEYVNLPINGNGKQ
# Substrate: [H][C@]12CC=C3[C@]4([H])CC(C)(C)CC[C@]4(C(=O)O[C@@H]4O[C@H](CO)[C@H](O)[C@H](O)[C@H]4O)CC[C@@]3(C)[C@]1(C)CC[C@@]1([H])C(C)(C)[C@@H](OC(=O)CN3CCN(c4cc(O/N=[N+](/[O-])N(C)CCO)c([N+](=O)[O-])cc4[N+](=O)[O-])CC3)CC[C@]21C
# Experiment: Activity at GSTpi (unknown origin) by Michaelis-Menten equation
# Assay type: ADME, Homo sapiens
protein,measurement,value
B1,Km,342 µM
same,Vmax,15.1 µmol/min
same,kcat,6.95 s⁻¹
same,kcat/Km,20100 M⁻¹ s⁻¹
